Measurements reported in publication doi:10.1101/2022.01.02.474068.

Biological target: BTN2A1 B30.2 domain (human)
Assay: SEC-MALS

stoichiometry N: 2
Substance: BTN2A1 B30.2 domain (domain or fragment)
